Experimental data from patent publication US20260176319A1 (KALLYOPE, published 2026).
Starred links: 1 amine or outer side, 2 acyl side, 3 side chain; linkers in the order of their positions; H or OH if unused. Non-standard residues stand in square brackets, D forms with d. No end group written: not given here. *: point of attachment. Trp(6-F) = N[C@@H](Cc1c[nH]c2cc(F)ccc12)C(=O)O; Trp(7-F) = N[C@@H](Cc1c[nH]c2c(F)cccc12)C(=O)O; Trp(7-Me) = Cc1cccc2c(C[C@H](N)C(=O)O)c[nH]c12; C20 diacid = O=C(O)CCCCCCCCCCCCCCCCCCC(=O)*; d(γGlu) = O=C(O)[C@@H](CCC(=O)[*:2])N[*:1]; C18 diacid = O=C(O)CCCCCCCCCCCCCCCCC(=O)*; γGlu = O=C(O)[C@H](CCC(=O)[*:2])N[*:1]; 2Nal = N[C@@H](Cc1ccc2ccccc2c1)C(=O)O; Cha = N[C@@H](CC1CCCCC1)C(=O)O; Nle = CCCC[C@H](N)C(=O)O; AEEA = NCCOCCOCC(=O)O; Sar = CNCC(=O)O

B1: Peptide 125 (peptide)
peptide: {C20 diacid}-[γGlu][AEEA][AEEA]GNH[Trp(7-Me)][dA]V[dA]HL[Nle][Sar]-NH2
SMILES: CCCC[C@H](NC(=O)[C@H](CC(C)C)NC(=O)[C@H](Cc1c[nH]cn1)NC(=O)[C@@H](C)NC(=O)[C@@H](NC(=O)[C@@H](C)NC(=O)[C@H](Cc1c[nH]c2c(C)cccc12)NC(=O)[C@H](Cc1c[nH]cn1)NC(=O)[C@H](CC(N)=O)NC(=O)CNC(=O)COCCOCCNC(=O)COCCOCCNC(=O)CC[C@H](NC(=O)CCCCCCCCCCCCCCCCCCC(=O)O)C(=O)O)C(C)C)C(=O)N(C)CC(N)=O
B2: Peptide 122 (peptide)
peptide: {C20 diacid}-[γGlu][AEEA][AEEA][AEEA][AEEA]GRH[Trp(7-Me)]AV[dA]HL[Nle]-NH2
SMILES: CCCC[C@H](NC(=O)[C@H](CC(C)C)NC(=O)[C@H](Cc1c[nH]cn1)NC(=O)[C@@H](C)NC(=O)[C@@H](NC(=O)[C@H](C)NC(=O)[C@H](Cc1c[nH]c2c(C)cccc12)NC(=O)[C@H](Cc1c[nH]cn1)NC(=O)[C@H](CCCNC(=N)N)NC(=O)CNC(=O)COCCOCCNC(=O)COCCOCCNC(=O)COCCOCCNC(=O)COCCOCCNC(=O)CC[C@H](NC(=O)CCCCCCCCCCCCCCCCCCC(=O)O)C(=O)O)C(C)C)C(N)=O
B3: Peptide 120 (peptide)
peptide: {C18 diacid}-[γGlu][AEEA][AEEA]GAHWAV[dA]HL[Cha]-NH2
SMILES: CC(C)C[C@H](NC(=O)[C@H](Cc1c[nH]cn1)NC(=O)[C@@H](C)NC(=O)[C@@H](NC(=O)[C@H](C)NC(=O)[C@H](Cc1c[nH]c2ccccc12)NC(=O)[C@H](Cc1c[nH]cn1)NC(=O)[C@H](C)NC(=O)CNC(=O)COCCOCCNC(=O)COCCOCCNC(=O)CC[C@H](NC(=O)CCCCCCCCCCCCCCCCC(=O)O)C(=O)O)C(C)C)C(=O)N[C@@H](CC1CCCCC1)C(N)=O
B4: Peptide 132 (peptide)
peptide: {C20 diacid}-[γGlu][AEEA][AEEA][AEEA][AEEA]GRHWAV[dA]HL[Nle]-NH2
SMILES: CCCC[C@H](NC(=O)[C@H](CC(C)C)NC(=O)[C@H](Cc1c[nH]cn1)NC(=O)[C@@H](C)NC(=O)[C@@H](NC(=O)[C@H](C)NC(=O)[C@H](Cc1c[nH]c2ccccc12)NC(=O)[C@H](Cc1c[nH]cn1)NC(=O)[C@H](CCCNC(=N)N)NC(=O)CNC(=O)COCCOCCNC(=O)COCCOCCNC(=O)COCCOCCNC(=O)COCCOCCNC(=O)CC[C@H](NC(=O)CCCCCCCCCCCCCCCCCCC(=O)O)C(=O)O)C(C)C)C(N)=O
B5: Peptide 123 (peptide)
peptide: {C20 diacid}-[γGlu][AEEA][AEEA]GNH[Trp(7-Me)]AV[dA]HL[Nle][Sar]-NH2
SMILES: CCCC[C@H](NC(=O)[C@H](CC(C)C)NC(=O)[C@H](Cc1c[nH]cn1)NC(=O)[C@@H](C)NC(=O)[C@@H](NC(=O)[C@H](C)NC(=O)[C@H](Cc1c[nH]c2c(C)cccc12)NC(=O)[C@H](Cc1c[nH]cn1)NC(=O)[C@H](CC(N)=O)NC(=O)CNC(=O)COCCOCCNC(=O)COCCOCCNC(=O)CC[C@H](NC(=O)CCCCCCCCCCCCCCCCCCC(=O)O)C(=O)O)C(C)C)C(=O)N(C)CC(N)=O
B6: Peptide 121 (peptide)
peptide: {C18 diacid}-[γGlu][AEEA][AEEA][AEEA][AEEA]GAH[Trp(7-F)]AV[dA]HL[Nle][Sar]-NH2
SMILES: CCCC[C@H](NC(=O)[C@H](CC(C)C)NC(=O)[C@H](Cc1c[nH]cn1)NC(=O)[C@@H](C)NC(=O)[C@@H](NC(=O)[C@H](C)NC(=O)[C@H](Cc1c[nH]c2c(F)cccc12)NC(=O)[C@H](Cc1c[nH]cn1)NC(=O)[C@H](C)NC(=O)CNC(=O)COCCOCCNC(=O)COCCOCCNC(=O)COCCOCCNC(=O)COCCOCCNC(=O)CC[C@H](NC(=O)CCCCCCCCCCCCCCCCC(=O)O)C(=O)O)C(C)C)C(=O)N(C)CC(N)=O
B7: Peptide 133 (peptide)
peptide: {C18 diacid}-[γGlu][AEEA][AEEA][AEEA][AEEA]GNH[Trp(6-F)]AV[dA]HL[Nle][Sar]-NH2
SMILES: CCCC[C@H](NC(=O)[C@H](CC(C)C)NC(=O)[C@H](Cc1c[nH]cn1)NC(=O)[C@@H](C)NC(=O)[C@@H](NC(=O)[C@H](C)NC(=O)[C@H](Cc1c[nH]c2cc(F)ccc12)NC(=O)[C@H](Cc1c[nH]cn1)NC(=O)[C@H](CC(N)=O)NC(=O)CNC(=O)COCCOCCNC(=O)COCCOCCNC(=O)COCCOCCNC(=O)COCCOCCNC(=O)CC[C@H](NC(=O)CCCCCCCCCCCCCCCCC(=O)O)C(=O)O)C(C)C)C(=O)N(C)CC(N)=O
B8: Peptide 119 (peptide)
peptide: {C18 diacid}-[γGlu][AEEA][AEEA]GNHWAV[dA]HL[Cha]-NH2
SMILES: CC(C)C[C@H](NC(=O)[C@H](Cc1c[nH]cn1)NC(=O)[C@@H](C)NC(=O)[C@@H](NC(=O)[C@H](C)NC(=O)[C@H](Cc1c[nH]c2ccccc12)NC(=O)[C@H](Cc1c[nH]cn1)NC(=O)[C@H](CC(N)=O)NC(=O)CNC(=O)COCCOCCNC(=O)COCCOCCNC(=O)CC[C@H](NC(=O)CCCCCCCCCCCCCCCCC(=O)O)C(=O)O)C(C)C)C(=O)N[C@@H](CC1CCCCC1)C(N)=O
B9: Peptide 130 (peptide)
peptide: {C18 diacid}-[γGlu][AEEA][AEEA]GNHRAV[dA]HL[Nle][Sar]-NH2
SMILES: CCCC[C@H](NC(=O)[C@H](CC(C)C)NC(=O)[C@H](Cc1c[nH]cn1)NC(=O)[C@@H](C)NC(=O)[C@@H](NC(=O)[C@H](C)NC(=O)[C@H](CCCNC(=N)N)NC(=O)[C@H](Cc1c[nH]cn1)NC(=O)[C@H](CC(N)=O)NC(=O)CNC(=O)COCCOCCNC(=O)COCCOCCNC(=O)CC[C@H](NC(=O)CCCCCCCCCCCCCCCCC(=O)O)C(=O)O)C(C)C)C(=O)N(C)CC(N)=O
B10: Peptide 128 (peptide)
peptide: {C18 diacid}-[γGlu][AEEA][AEEA]GAHW[dA]V[dA]HL[Nle][Sar]-NH2
SMILES: CCCC[C@H](NC(=O)[C@H](CC(C)C)NC(=O)[C@H](Cc1c[nH]cn1)NC(=O)[C@@H](C)NC(=O)[C@@H](NC(=O)[C@@H](C)NC(=O)[C@H](Cc1c[nH]c2ccccc12)NC(=O)[C@H](Cc1c[nH]cn1)NC(=O)[C@H](C)NC(=O)CNC(=O)COCCOCCNC(=O)COCCOCCNC(=O)CC[C@H](NC(=O)CCCCCCCCCCCCCCCCC(=O)O)C(=O)O)C(C)C)C(=O)N(C)CC(N)=O
B11: Peptide 129 (peptide)
peptide: {C18 diacid}-[γGlu][AEEA][AEEA]GRH[Trp(7-Me)]AV[dA]HL[Nle][Sar]-NH2
SMILES: CCCC[C@H](NC(=O)[C@H](CC(C)C)NC(=O)[C@H](Cc1c[nH]cn1)NC(=O)[C@@H](C)NC(=O)[C@@H](NC(=O)[C@H](C)NC(=O)[C@H](Cc1c[nH]c2c(C)cccc12)NC(=O)[C@H](Cc1c[nH]cn1)NC(=O)[C@H](CCCNC(=N)N)NC(=O)CNC(=O)COCCOCCNC(=O)COCCOCCNC(=O)CC[C@H](NC(=O)CCCCCCCCCCCCCCCCC(=O)O)C(=O)O)C(C)C)C(=O)N(C)CC(N)=O
B12: Peptide 124 (peptide)
peptide: {C18 diacid}-[γGlu][AEEA][AEEA]GAH[2Nal]AV[dA]HL[Nle][Sar]-NH2
SMILES: CCCC[C@H](NC(=O)[C@H](CC(C)C)NC(=O)[C@H](Cc1c[nH]cn1)NC(=O)[C@@H](C)NC(=O)[C@@H](NC(=O)[C@H](C)NC(=O)[C@H](Cc1ccc2ccccc2c1)NC(=O)[C@H](Cc1c[nH]cn1)NC(=O)[C@H](C)NC(=O)CNC(=O)COCCOCCNC(=O)COCCOCCNC(=O)CC[C@H](NC(=O)CCCCCCCCCCCCCCCCC(=O)O)C(=O)O)C(C)C)C(=O)N(C)CC(N)=O
B13: Peptide 9 (peptide)
peptide: {C18 diacid}-[d(γGlu)][AEEA][AEEA]GNHWAV[dA]HL[Nle]-NH2
SMILES: CCCC[C@H](NC(=O)[C@H](CC(C)C)NC(=O)[C@H](Cc1c[nH]cn1)NC(=O)[C@@H](C)NC(=O)[C@@H](NC(=O)[C@H](C)NC(=O)[C@H](Cc1c[nH]c2ccccc12)NC(=O)[C@H](Cc1c[nH]cn1)NC(=O)[C@H](CC(N)=O)NC(=O)CNC(=O)COCCOCCNC(=O)COCCOCCNC(=O)CC[C@@H](NC(=O)CCCCCCCCCCCCCCCCC(=O)O)C(=O)O)C(C)C)C(N)=O
B14: Peptide 126 (peptide)
peptide: {C18 diacid}-[γGlu][AEEA][AEEA]GAH[2Nal]AV[dA]HL[Nle]-NH2
SMILES: CCCC[C@H](NC(=O)[C@H](CC(C)C)NC(=O)[C@H](Cc1c[nH]cn1)NC(=O)[C@@H](C)NC(=O)[C@@H](NC(=O)[C@H](C)NC(=O)[C@H](Cc1ccc2ccccc2c1)NC(=O)[C@H](Cc1c[nH]cn1)NC(=O)[C@H](C)NC(=O)CNC(=O)COCCOCCNC(=O)COCCOCCNC(=O)CC[C@H](NC(=O)CCCCCCCCCCCCCCCCC(=O)O)C(=O)O)C(C)C)C(N)=O
B15: Peptide 131 (peptide)
peptide: {C20 diacid}-[γGlu][AEEA][AEEA]GNHWAV[dA]HL[Nle][Sar]-NH2
SMILES: CCCC[C@H](NC(=O)[C@H](CC(C)C)NC(=O)[C@H](Cc1c[nH]cn1)NC(=O)[C@@H](C)NC(=O)[C@@H](NC(=O)[C@H](C)NC(=O)[C@H](Cc1c[nH]c2ccccc12)NC(=O)[C@H](Cc1c[nH]cn1)NC(=O)[C@H](CC(N)=O)NC(=O)CNC(=O)COCCOCCNC(=O)COCCOCCNC(=O)CC[C@H](NC(=O)CCCCCCCCCCCCCCCCCCC(=O)O)C(=O)O)C(C)C)C(=O)N(C)CC(N)=O

What follows are binders tested against human GRP receptor (human, UniProt P30550 1-384) (assay: cell-based or functional assay).
human GRP receptor, sequence (P30550 whole entry): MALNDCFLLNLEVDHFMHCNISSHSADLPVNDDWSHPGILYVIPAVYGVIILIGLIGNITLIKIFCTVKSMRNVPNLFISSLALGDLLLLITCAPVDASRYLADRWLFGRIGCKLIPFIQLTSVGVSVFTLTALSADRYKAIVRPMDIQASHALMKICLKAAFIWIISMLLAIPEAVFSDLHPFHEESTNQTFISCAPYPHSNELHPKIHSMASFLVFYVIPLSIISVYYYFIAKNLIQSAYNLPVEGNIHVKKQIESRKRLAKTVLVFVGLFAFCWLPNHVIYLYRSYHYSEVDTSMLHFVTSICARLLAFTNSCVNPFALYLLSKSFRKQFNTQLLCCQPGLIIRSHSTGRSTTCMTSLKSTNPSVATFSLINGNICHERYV
With B1 the “hIP1 GRPR EC50” value was greater than 10000 nM.
With B2 the “hIP1 GRPR EC50” value was 3.88 nM.
In the case of B3, the “hIP1 GRPR EC50” value is reported as 443 nM.
With B4 the “hIP1 GRPR EC50” value was 4.18 nM.
For B5, the “hIP1 GRPR EC50” value was 60.1 nM.
In the case of B6, the “hIP1 GRPR EC50” value is reported as 356 nM.
For B7, the “hIP1 GRPR EC50” value was 600 nM.
With GNHWAVXHLX (Palmitoyl-Gly-Asn-His-Trp-Ala-Val-D-Ala-His-Leu-Nle-NH2) [Peptide 10] the “hIP1 GRPR EC50” value was 3.8 nM.
For B8, the “hIP1 GRPR EC50” value was 660 nM.
For B9, the “hIP1 GRPR EC50” value was greater than 10000 nM.
In the case of B10, the “hIP1 GRPR EC50” value is reported as 1060 nM.
With B11 the “hIP1 GRPR EC50” value was 334 nM.
In the case of B12, the “hIP1 GRPR EC50” value is reported as 2380 nM.
With GNHWAVGHLM-NH2 [GRP-10 (human GRP18-27)] the “hIP1 GRPR EC50” value was 15 nM.
With B13 the “hIP1 GRPR EC50” value was 9.4 nM.
B14 was tested, and the “hIP1 GRPR EC50” value was 92.5 nM.
B15 was tested, and the “hIP1 GRPR EC50” value was 54.2 nM.
